Results on 167 variants are retold here after the RNAGym collection of RNA variant scans (doi:10.7554/elife.90254).

The chains are these.
B1: LINE1-mini (parent)
chain: GGCAGAGCUCAACACAGCGUGGCAAAGUGGCUGUGGCUAGACUGCC

Variants of B1 are the subject of the data set. Put plainly: self-cleavage, relative activity (ratio to wild type); higher = more cleavage; in vitro, sequencing; the parent is a self-cleaving ribozyme.
Regarding A16G G30U, the self-cleavage stood at 0.31.

As for A16G G30C, the self-cleavage was determined as 1.19.

With A16U G22U, the self-cleavage was found to be 0.42.

Consider A16U G22A, for which the self-cleavage was found to be 0.42.

Consider A16U G22C, for which the self-cleavage was determined as 0.28.

For A16C G40C, the self-cleavage was 0.03.

Consider A16C G40U, for which the self-cleavage was determined as 0.03.

With A16C G40A, the self-cleavage was determined as 0.05.

Take A16U G21U: the self-cleavage was 0.19.

Regarding A16U G21A, the self-cleavage amounted to 0.23.

Regarding A16U G21C, the self-cleavage amounted to 0.27.

On to C15U G36A, for which the self-cleavage was determined as 0.15.

Consider C15U G36U, for which the self-cleavage worked out at 0.12.

Regarding C15U G36C, the self-cleavage turned out to be 0.06.

As to A16U G40C, the self-cleavage worked out at 0.05.

Consider A16U G40A, for which the self-cleavage was 0.04.

Turning to A16U G40U, the self-cleavage was determined as 0.07.

With A16U C46G, the self-cleavage was determined as 0.08.

For the variant A16U C46A, the self-cleavage came out at 0.09.

With A16U C46U, the self-cleavage was determined as 0.1.

In the case of A16U C45A, the self-cleavage came out at 0.1.

Take A16U C45U: the self-cleavage was determined as 0.11.

Consider A16U C45G, for which the self-cleavage is 0.13.

For the variant C15U U43A, the self-cleavage was found to be 0.14.

On to C15U U43C, for which the self-cleavage turned out to be 0.14.

Consider C15U U43G, for which the self-cleavage came to 0.44.

As for A16U U20C, the self-cleavage was 0.26.

For the variant A16U U20A, the self-cleavage worked out at 0.06.

As to A16U U20G, the self-cleavage worked out at 0.03.

As for A16G C46G, the self-cleavage amounted to 0.68.

A16G C46U: the self-cleavage was 0.55.

Regarding A16G C46A, the self-cleavage came out at 0.64.

Take A16G U43G: the self-cleavage was found to be 0.08.

For the variant A16G U43C, the self-cleavage stood at 0.04.

With A16G U43A, the self-cleavage is 0.02.

For the variant A16U G27U, the self-cleavage was 0.13.

For A16U G27A, the self-cleavage amounted to 0.59.

In the case of A16U G27C, the self-cleavage is 0.16.

Turning to A16C A41G, the self-cleavage was 0.02.

For the variant A16C A41C, the self-cleavage was found to be 0.03.

Regarding A16C A41U, the self-cleavage was found to be 0.05.

For A16U G29U, the self-cleavage is 0.39.

Take A16U G29A: the self-cleavage is 0.38.

Take A16U G29C: the self-cleavage worked out at 0.53.

A16U A24G: the self-cleavage came to 0.1.

In the case of A16U A24C, the self-cleavage is 0.1.

In the case of A16U A24U, the self-cleavage was found to be 0.11.

With A16U G35C, the self-cleavage amounted to 0.07.

As to A16U G35A, the self-cleavage came to 0.01.

In the case of A16U G35U, the self-cleavage was 0.04.

With C15U G40C, the self-cleavage was 0.07.

With C15U G40U, the self-cleavage came to 0.12.

As to C15U G40A, the self-cleavage was 0.14.

In the case of C15U U20G, the self-cleavage was 0.49.

For C15U U20A, the self-cleavage came to 0.92.

For C15U U20C, the self-cleavage is 0.32.

In the case of A16C U38G, the self-cleavage came to 0.03.

Regarding A16C U38C, the self-cleavage is 0.1.

As for A16C U38A, the self-cleavage came to 0.13.

In the case of A16G C18G, the self-cleavage came out at 0.04.

As to A16G C18U, the self-cleavage stood at 0.33.

Take A16G C18A: the self-cleavage was 0.16.

A16C C45U: the self-cleavage was determined as 0.07.

Turning to A16C C45A, the self-cleavage amounted to 0.07.

Consider A16C C45G, for which the self-cleavage came to 0.06.

In the case of A16U U32A, the self-cleavage was 0.55.

A16U U32G: the self-cleavage is 0.29.

In the case of A16U U32C, the self-cleavage worked out at 0.18.

On to A16U C42A, for which the self-cleavage came out at 0.05.

Regarding A16U C42G, the self-cleavage was 0.07.

Turning to A16U C42U, the self-cleavage amounted to 0.09.

Consider A16G A24C, for which the self-cleavage was determined as 0.13.

A16G A24U: the self-cleavage came to 0.62.

A16G A24G: the self-cleavage came out at 0.16.

Regarding A16C G27U, the self-cleavage is 0.14.

As for A16C G27A, the self-cleavage worked out at 0.26.

A16C G27C: the self-cleavage came to 0.15.

Consider A16U C37G, for which the self-cleavage was found to be 0.07.

Consider A16U C37A, for which the self-cleavage was found to be 0.11.

Consider A16U C37U, for which the self-cleavage came out at 0.06.

Take C15U U32C: the self-cleavage is 0.08.

For the variant C15U U32G, the self-cleavage was 0.12.

Consider C15U U32A, for which the self-cleavage is 0.09.

Turning to A16C G35U, the self-cleavage amounted to 0.03.

A16C G35A: the self-cleavage came out at 0.06.

On to A16C G35C, for which the self-cleavage is 0.06.

With A16C U34G, the self-cleavage is 0.05.

With A16C U34A, the self-cleavage came out at 0.04.

Regarding A16C U34C, the self-cleavage stood at 0.07.

For the variant A16G G22U, the self-cleavage stood at 0.63.

For A16G G22C, the self-cleavage was 0.1.

As to A16G G22A, the self-cleavage was 0.71.

Consider A16G A41C, for which the self-cleavage is 0.11.

Turning to A16G A41U, the self-cleavage amounted to 0.16.

In the case of A16G A41G, the self-cleavage was 0.15.

Consider A16U U34A, for which the self-cleavage was 0.04.

For A16U U34G, the self-cleavage was determined as 0.02.

Turning to A16U U34C, the self-cleavage came out at 0.07.

Consider A16U A39G, for which the self-cleavage worked out at 0.07.

As for A16U A39U, the self-cleavage worked out at 0.08.

With A16U A39C, the self-cleavage was determined as 0.08.

Regarding A16U G19U, the self-cleavage came to 0.2.

For A16U G19C, the self-cleavage is 0.6.

A16U G19A: the self-cleavage is 0.19.

G17A A26U: the self-cleavage was 0.21.

Take G17A A26G: the self-cleavage amounted to 0.1.

Consider G17A A26C, for which the self-cleavage is 0.34.

As for A16G A25G, the self-cleavage came out at 0.04.

As for A16G A25C, the self-cleavage amounted to 0.06.

A16G A25U: the self-cleavage was 0.31.

Consider C15U U34C, for which the self-cleavage came out at 0.14.

For C15U U34G, the self-cleavage is 0.07.

Turning to C15U U34A, the self-cleavage was found to be 0.08.

For A16C A26G, the self-cleavage came to 0.02.

For A16C A26C, the self-cleavage came out at 0.04.

A16C A26U: the self-cleavage was 0.05.

Consider A16C U43A, for which the self-cleavage amounted to 0.04.

In the case of A16C U43C, the self-cleavage amounted to 0.08.

Consider A16C G44C, for which the self-cleavage worked out at 0.02.

Take A16C G44U: the self-cleavage was 0.07.

In the case of A16C G44A, the self-cleavage was 0.05.

Consider A16G G33C, for which the self-cleavage is 0.05.

Take A16G G33A: the self-cleavage amounted to 0.03.

As to A16G G33U, the self-cleavage is 0.04.

On to A16G U20G, for which the self-cleavage came out at 0.16.

As for A16G U20A, the self-cleavage was 0.16.

Take A16G U20C: the self-cleavage came to 0.37.

Regarding A16C C46G, the self-cleavage was 0.09.

As to A16C C46A, the self-cleavage stood at 0.1.

Turning to A16C C46U, the self-cleavage came out at 0.08.

As for A16G G19U, the self-cleavage was found to be 0.47.

As to A16G G19C, the self-cleavage was determined as 0.5.

With A16G G19A, the self-cleavage came to 1.31.

For the variant A16G C37G, the self-cleavage stood at 0.02.

Take A16G C37A: the self-cleavage turned out to be 0.08.

As for A16G C37U, the self-cleavage was 0.04.

As to A16U G30U, the self-cleavage worked out at 0.06.

As to A16U G30A, the self-cleavage turned out to be 0.1.

As to A16U G30C, the self-cleavage was 0.45.

Consider A16C U32A, for which the self-cleavage was found to be 0.13.

In the case of A16C U32G, the self-cleavage was found to be 0.4.

A16C U32C: the self-cleavage stood at 0.09.

As for A16C C37U, the self-cleavage was found to be 0.1.

In the case of A16C C37A, the self-cleavage worked out at 0.06.

A16C C37G: the self-cleavage is 0.02.

For A16U G33A, the self-cleavage was 0.07.

Regarding A16U G33U, the self-cleavage is 0.14.

As to A16U G33C, the self-cleavage worked out at 0.07.

With A16C G29A, the self-cleavage came to 0.57.

Turning to A16C G29U, the self-cleavage was 0.55.

In the case of A16C G29C, the self-cleavage stood at 0.77.

As to A16U A41C, the self-cleavage was found to be 0.05.

For the variant A16U A41U, the self-cleavage is 0.07.

Consider A16U A41G, for which the self-cleavage came out at 0.07.

On to A16G U34C, for which the self-cleavage stood at 0.08.

Take A16G U34A: the self-cleavage came to 0.02.

Regarding A16G U34G, the self-cleavage is 0.08.

On to G17A, for which the self-cleavage came out at 0.19.

In the case of A16C G22C, the self-cleavage turned out to be 0.09.

Turning to A16C G22A, the self-cleavage is 0.1.

In the case of A16C G22U, the self-cleavage came out at 0.1.

As to A16C C18U, the self-cleavage turned out to be 0.09.

A16C C18G: the self-cleavage is 0.04.

In the case of A16C C18A, the self-cleavage was found to be 0.06.

Regarding G17A A24C, the self-cleavage worked out at 0.06.

Consider G17A A24U, for which the self-cleavage stood at 0.38.

On to G17A A24G, for which the self-cleavage turned out to be 0.18.
